According to PMC3467072:

Legend:
[1] = molecular target: Rv3066 regulator, full-length, with a 6xHis tag at the C-terminus (Mycobacterium tuberculosis strain H37Rv) (UniProt I6X658); test: crystal structure
[2] = molecular target: T1, Rv3066 (TetR-family regulator) (Mycobacterium tuberculosis H37Rv) (UniProt I6X658); test: DNase I footprinting
T1 sequence: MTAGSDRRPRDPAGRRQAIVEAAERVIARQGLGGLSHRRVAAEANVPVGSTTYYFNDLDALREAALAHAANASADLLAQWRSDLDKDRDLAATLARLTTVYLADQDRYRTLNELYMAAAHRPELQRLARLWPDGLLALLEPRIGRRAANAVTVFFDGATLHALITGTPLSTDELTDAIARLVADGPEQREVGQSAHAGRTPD

Rv3066 regulator, full-length, with a 6xHis tag at the C-terminus (from UniProt I6X658 1-202) (natural protein)
stoichiometry N [1]: 2

TCGAGATCTTTCACCATGACACGACGTTACGGGGATCGACCGCGCGAACGCTGGGCGGATTTTGTCTCCCACCGGTGTGCCTACTCACGTGTGGACGCACGAGCCTCCTTTGTGTACATTTGTACACAAAGGAGGGGTCTTGATCTACCTATACCTCTTGTGCGCGATCTTCGCGGAAGTGGTGGCAACCAGCCTGCTCAAAAGCACGGAAGGGTTCACTCGGTTG (double strand) [226-bp mmr promoter probe (IR1, IR2 removed)]
binding [2]: binds
